Paper PMC314469, “Protein Interaction Networks by Proteome Peptide Scanning” (PLoS Biology, 2004)

T1: Abp1 SH3 (ABP1_YEAST), P15891
T1 chain: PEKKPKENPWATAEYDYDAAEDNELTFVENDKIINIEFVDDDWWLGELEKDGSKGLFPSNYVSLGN


Biological target: T1, Abp1 SH3 (ABP1_YEAST), P15891
Assay: SPOT array

| normalised SPOT signal, Boehringer light units (BLU); mean over the file's lines of this peptide | Binder |
| --- | --- |
| 105 | DSSLQHQQRQPKRP [YJR147W 209-222] |
| 4.8 | EGGAYIIPNFGKP [YPR184W 920-932] |
| 106 | EHFDIPPPAIMKP [YOR116C 588-600] |
| 72.6 | EFTDMEIPDSVKP [YKL010C 660-672] |
| 145 | DWALLRNQNDPQKP [YLR357W 414-427] |
| 230 | DMFDFLIDVVPRRP [YOR358W 226-239] |
| 380 | DSVLRQKPDKPRP [YMR032W 380-392] |
| 126 | EGKNEETPQNEKP [YKL144C 179-191] |
| 145 | EEFPEIIPLQQRP [YPL117C 30-42] |
| 118 | EFRQEIIDRVPLRP [YMR027W 61-74] |
| 81.5 | EEEEGEVLLPPSRP [YLR079W 130-143] |
| 254 | EEFDSYSRSRPTRP [YNL165W 290-303] |
| 108 | EEPEDFLPPPPKP [YLR285W 15-27] |
| 395 | EHSRVKLPHSPKP [YOR208W 421-433] |
| 68.3 | DNDEEADPSSFKP [YLR087C 1186-1198] |
| 76.2 | DPEPAKASTKPEKP [YNL106C 1102-1115] |
| 128 | EGQVLYDPEPFKP [YNL086W 59-71] |
| 0 | DSIWPDFETLPERP [YLL029W 272-285] |
| 126 | EIELLVDSKDPNKP [YLL040C 1996-2009] |
| 144 | EDFKDTKPVHKKP [YOR287C 64-76] |
| 144 | DVPNTAGPHIARP [YOR028C 108-120] |
| 130 | DTKRLGTPESVKP [YLR071C 1030-1042] |
| 91 | DNIAEYVPDKKRP [YMR266W 274-286] |
| 135 | DTLYINGIRIPYRP [YPR032W 898-911] |
| 132 | EGSQSVPIEIPKKP [YLR081W 51-64] |
| 2470 | DVMKQSFPRLIKP [YPL073C 93-105] |
| 62 | DVAQPGGVAKPKKP [YNL298W 506-519] |

Second part, the binder before the results:

| Binder | normalised SPOT signal, Boehringer light units (BLU); mean over the file's lines of this peptide |
| --- | --- |
| EHAVANGPSHRRP [YBL101C 762-774] | 97.9 |
| DSSSANGKFIPSRP [YHL007C 462-475] | 98.6 |
| DNARKSEELYPGRP [YAL038W 65-78] | 105 |
| DPQIMDEYSYPGRP [YDR182W 95-108] | 144 |
| EKARNVEYKKPQKP [YCL061C 306-319] | 80.9 |
| DVITHFGPDADKP [YBL035C 6-18] | 25.6 |
| EIQNGKRPVLLKP [YIR007W 368-380] | 248 |
| EESKARSPGIAKP [YDR227W 268-280] | 404 |
| EIERHETPLNIRP [YGR267C 9-21] | 0 |
| DVKKEQAPEGKRP [YDL213C 31-43] | 94.6 |
| DVLFSYFPITFKP [YIL128W 218-230] | 32.1 |
| DSKGARFLPAPHRP [YGR154C 60-73] | 299 |
| EDEEGPPPAMPARP [YBL007C 188-201] | 36.2 |
| EEKAKAVNELPTKP [YGR037C 7-20] | 188 |
| DSIAKLQPQVYKP [YFR037C 542-554] | 83.3 |
| DMERKMTPALNRP [YDR074W 548-560] | 2180 |

| Binder | normalised SPOT signal, Boehringer light units (BLU); mean over the file's lines of this peptide |
| --- | --- |
| DQVPVTTQLPPIKP [YER159C 3-16] | 74.1 |
| EIFPNSKPLQPKP [YJL010C 631-643] | 13.6 |
| DVGSTIPYDFPEKP [YGL212W 55-68] | 140 |
| DVDSSSTPFGTKP [YIL115C 681-693] | 113 |
| EEEIELPPGVKKP [YFL004W 659-671] | 77.1 |
| DVIISPTTLMPFRP [YDR242W 443-456] | 68.9 |
| DQNQERKNSVPKKP [YHR004C 68-81] | 60 |
| EDDTNPQLLEPVKP [YDR528W 157-170] | 86.1 |
| EFRKSDEPVSVKP [YBR237W 77-89] | 69.6 |
| DTERLKRDLSPRKP [YBL111C 228-241] | 394 |
| DTNDIKTPHPERP [YER169W 627-639] | 77.3 |
| EETIVFLQSDPSRP [YDR127W 1000-1013] | 50.7 |
| EALKQKKIPPPFKP [YHR205W 677-690] | 3010 |
| EHMLYIIPPQIKP [YIL103W 218-230] | 96.5 |
| DRRRLLGPAAAKP [YGR158C 5-17] | 483 |
